Data from patent publication US20180318451A1 (published 2018).
Positions count from the first letter of the chain named. Values belong to the binder of their own block, whether it stands above or below them.

Columns and labels:
ovalbumin = molecular target: T1, ovalbumin (UniProt P01012 2-386); assay: ELISA, ovalbumin-coated wells
T1 sequence (looked up): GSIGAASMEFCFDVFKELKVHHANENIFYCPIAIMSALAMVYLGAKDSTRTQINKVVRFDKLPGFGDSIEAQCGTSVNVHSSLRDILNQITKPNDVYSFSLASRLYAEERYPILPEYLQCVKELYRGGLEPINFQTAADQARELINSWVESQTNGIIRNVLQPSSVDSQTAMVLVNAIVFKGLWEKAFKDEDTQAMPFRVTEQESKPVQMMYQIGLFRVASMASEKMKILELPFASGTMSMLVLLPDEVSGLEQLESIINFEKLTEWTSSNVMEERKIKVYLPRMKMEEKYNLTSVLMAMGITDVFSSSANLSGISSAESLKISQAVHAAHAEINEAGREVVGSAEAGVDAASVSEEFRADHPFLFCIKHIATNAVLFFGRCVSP
From the text: (§1) Enriched lipocalin variants from phage display were subjected to ELISA screening after subcloning of the central BstXI gene cassette on pNGAL98, which also encodes the N-terminal OmpA signal sequence directing the expressed protein into the bacterial periplasm and a C-terminal Strep-tag II for purification (Schmidt, T. G. & Skerra, A. [2007] Nat. Protoc. 2:1528-1535). After transformation of E. coli TG1-F- (Kim, H. J. et al. [2009] J. Am. Chem. Soc. 131:3565-3576) with the ligation mixture, randomly picked colonies were inoculated in a 96-well plate filled with 100 μL of Terrific broth (TB) media supplemented with 100 μg/mL ampicillin per well. Anticalin expression was induced at an optical density of OD₅₅₀=0.3-0.5 by addition of 20 μL TB/Amp containing 1.2 μg/mL anhydrotetracycline (aTc; ACROS Organics, 233131000) overnight at 20° C. The periplasmic extract was prepared as previously described²¹ and applied to 96-well MaxiSorp plates (Nunc, 442404) coated with rhPSMA (5 μg/mL in TBS) and blocked with BSA. Ovalbumin (10 μg/mL in TBS) served as non-related control protein in parallel. After 1 h incubation at room temperature, plates were washed three times with PBS/T and bound lipocalin variants were detected by means of their C-terminal Strep-tag II using StrepTactin conjugated to alkaline phosphatase (IBA, 2-1503-001), diluted 1:5,000 in PBS, for 1 h. Signals were developed by hydrolysis of 0.5 mg/mL p-nitrophenyl phosphate in 0.1 M NaCl, 5 mM MgCl₂, 0.1 M Tris/HCl, pH 8.8, and monitored via absorbance measurement at 405 nm with an Infinite 200 PRO microplate reader (Tecan).
Individual colonies were used for micro-scale expression in a 96-well plate and crude E. coli lysates from these cultures were screened in an ELISA for Anticalins having PSMA-binding activity. To this end, MaxiSorp plates coated with glycosylated rhPSMA were used as a target, whereas ovalbumin-coated wells were used as negative control to assess non-specific binding. Bound Anticalins were detected via the C-terminal Strep-tag II.

[1] = molecular target: T2, rhPSMA, extracellular part of human PSMA (residues 44-750) with its native N-terminus (human, UniProt Q04609 44-750, N-glycosylated (made in Schneider S2 insect cells)); assay: ELISA, rhPSMA coated on MaxiSorp plate
T2 construct: range 44-750; No tag; also called wild-type rhPSMA; rhGCPII
T2 sequence (Q04609 44-750 limits assumed): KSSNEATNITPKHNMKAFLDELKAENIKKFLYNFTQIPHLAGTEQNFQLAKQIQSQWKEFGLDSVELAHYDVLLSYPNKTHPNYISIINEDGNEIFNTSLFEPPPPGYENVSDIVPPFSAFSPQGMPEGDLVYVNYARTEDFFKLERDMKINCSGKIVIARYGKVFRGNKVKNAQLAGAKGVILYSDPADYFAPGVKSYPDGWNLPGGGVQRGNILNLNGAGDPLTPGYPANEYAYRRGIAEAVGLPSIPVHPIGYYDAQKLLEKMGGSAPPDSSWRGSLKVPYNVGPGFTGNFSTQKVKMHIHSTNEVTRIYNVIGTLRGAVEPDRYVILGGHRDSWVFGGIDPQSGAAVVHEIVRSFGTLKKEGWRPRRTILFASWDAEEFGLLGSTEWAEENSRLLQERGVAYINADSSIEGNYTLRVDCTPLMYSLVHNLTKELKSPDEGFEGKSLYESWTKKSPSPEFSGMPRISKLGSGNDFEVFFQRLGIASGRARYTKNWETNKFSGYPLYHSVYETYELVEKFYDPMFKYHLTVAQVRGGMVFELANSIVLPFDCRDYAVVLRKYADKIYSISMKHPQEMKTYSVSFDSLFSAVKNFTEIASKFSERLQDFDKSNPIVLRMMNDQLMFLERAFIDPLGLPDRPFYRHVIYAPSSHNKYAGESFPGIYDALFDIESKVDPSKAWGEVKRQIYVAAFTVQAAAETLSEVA
From the text: as §1, with “The periplasmic extract was prepared as previously described²¹ and applied to 96-well MaxiSorp plates (Nunc, 442404) coated with rhPSMA (5 μg/mL in TBS) and blocked with BSA. Ovalbumin (10 μg/mL in TBS) served as non-related control protein in parallel.” left out, “(Tecan). […]” for “(Tecan).”

[2] = molecular target: T2, rhPSMA, extracellular part of human …; assay: SPR (BIAcore 2000), rhPSMA amine-coupled to CM5 chip, Anticalin as analyte
Description: Anticalin binding was detected using StrepTactin/AP conjugate, followed by chromogenic reaction. Absorption was plotted against the Anticalin concentration and data were analyzed by curve fitting. Binding curves for the best performing clones A3 and A3A5 are shown as solid lines. (C-E) SPR sensograms measured for Anticalins A3, A3A5 and A3A5.1 on a BIAcore 2000 instrument. Approximately 500 RU of rhPSMA was immobilized on a CM5 sensor chip by amine coupling. A dilution series from 64 to 2 nM of the purified Anticalin in HBS was applied and the resulting curves were fitted according to a Langmuir 1:1 binding model. (F) Comparison of parameters from real-time SPR analysis for Anticalins investigated in C-E, together with A3A5.7, in a kₒₙ/koff plot.
(§2) Surface plasmon resonance (SPR) spectroscopy was performed on a BIAcore 2000 instrument (BIAcore) following published procedures (Gebauer, M. et al. [2013] J. Mol. Biol. 425:780-802; De Crescenzo, G. et al. [2008] J. Mol. Recognit. 21:256-266). rhPSMA (1 nM in 10 mM Na-acetate pH 5.0) was immobilized on a CM5 sensor chip (BIAcore) using an amine coupling kit (GE Healthcare, BR100050), resulting in around 500 resonance units (ΔRU). The purified Anticalins were diluted in HEPES buffered saline (HBS; 10 mM HEPES/NaOH, 150 mM NaCl, pH 7.4) with 0.005% v/v Tween 20 to concentrations from 64-2 nM. The instrument was operated using the same running buffer at a flow rate of 25 μL/min. […] Regeneration of the sensor chip was achieved by up to four injections of 10 μL glycine/HCl, pH 2.0. The sensorgrams were corrected by double subtraction of the corresponding signals measured for the in-line control blank channel and an averaged baseline determined from three buffer blank injections³¹. Kinetic parameters were determined by data fitting using a 1:1 Langmuir binding model with BIAevaluation software version 4.1 (BIAcore).
To precisely determine kinetic and thermodynamic binding constants of the PSMA-specific Anticalin A3 and its variants, surface plasmon resonance (SPR) real-time analyses was performed on a BIAcore 2000 instrument. To this end, rhPSMA was chemically coupled to the carboxymethyl dextran matrix of a sensorchip using amine chemistry and a concentrations series of each Anticalin was applied.

[3] = molecular target: T2, rhPSMA, extracellular part of human …; assay: ELISA, rhPSMA coated on MaxiSorp plate, Anticalin dilution series
From the text: (§3) FIG. 4: Anticalin affinities towards PSMA as determined by ELISA and BIAcore measurements. Binding activities of Anticalins selected from the original naïve library (A) or resulting from subsequent affinity maturation of the A3 variant (B) were compared in an ELISA. A 96-well MaxiSorp plate was coated with rhPSMA (or ovalbumin as a negative control, not shown) and purified Anticalin variants were applied in dilution series. Anticalin binding was detected using StrepTactin/AP conjugate, followed by chromogenic reaction. Absorption was plotted against the Anticalin concentration and data were analyzed by curve fitting. Binding curves for the best performing clones A3 and A3A5 are shown as solid lines. (C-E) SPR sensograms measured for Anticalins A3, A3A5 and A3A5.1 on a BIAcore 2000 instrument. Approximately 500 RU of rhPSMA was immobilized on a CM5 sensor chip by amine coupling. […]
(§4) 50 μL of rhPSMA (5 μg/mL in TBS) was directly adsorbed onto the surface of a MaxiSorp 96-well plate overnight at 4° C. […] The plates were washed three times and bound Anticalins were detected with StrepTactin-AP as described further above. The data were analyzed using Prism 5 software (GraphPad) and absorption values (A) were fitted according to the formula ΔA=Aₘₐₓ·[Lₜₒₜ]/(KD+[Lₜₒₜ]) with the concentration of the applied lipocalin variant [Lₜₒₜ] and the dissociation constant KD.

[4] = molecular target: T2, rhPSMA, extracellular part of human …; assay: SPR (BIAcore 2000), rhPSMA on chip
Description: as §2
To precisely determine kinetic and thermodynamic binding constants of the PSMA-specific Anticalin A3 and its variants, surface plasmon resonance (SPR) real-time analyses was performed on a BIAcore 2000 instrument. […]

[5] = molecular target: T2, rhPSMA, extracellular part of human …; assay: SPR (BIAcore), rhPSMA on chip
Description: as §2, with “(BIAcore). […]” for “(BIAcore).”

[6] = molecular target: T2, rhPSMA, extracellular part of human …; assay: SPR (BIAcore), rhPSMA on chip, Anticalin as analyte
Description: as §2
Several combinations of mutations occurring in the PSMA-specific Lcn2 variants A3A5.1 (carrying 5 new mutations) and A3A5.7 (carrying 4 new mutations) were prepared in order to investigate the relevance of the mutations that were found during affinity maturation for improved PSMA binding with the aim to create a combined Anticalin variant suitable for further protein engineering studies. A first combination, containing solely the mutations located in the loop regions of the Anticalins, was carried out by introducing the following mutations into the sequence of A3A5 (see SEQ ID NO:2): (i) a Y at position 71 as also present in A3A5.1, (ii) an N at position 74 as also present in A3A5.7, (iii) a D at position 103 as also present in A3A5.1. This triple substitution variant, termed A3A5.8, was obtained by gene synthesis, cloned and subsequently expressed (as described in Example 1).

[7] = molecular target: T2, rhPSMA, extracellular part of human …; assay: ELISA, rhPSMA coated on MaxiSorp plate, Anticalin dilution series, detection by StrepTactin/AP
From the text: as §3, §4

binding result (ovalbumin): no binding | binding result [1]: binds
B1: Anticalin candidate H5 (designed binder)
chain: QDSTSDLIPAPPLSKVPLQQNFQDNQFHGKWYVVGTAGNWPLREDKDPHKMSATIYELKEDKSYNVTNVQFSSKKCLYFIGTFVPGSQPGEFTLGPIKSAPGQTSGLVRVVSTNYNQHAMVFFKQVIQNREAFIITLYGRTKELTSELKENFIRFSKSLGLPENHIVFPVPIDQCIDG
notes: not shown: C-terminal Strep-tag II

Kd [2]: 0.54 nM | koff [2]: 0.00014 s⁻¹ | kon [2]: 270000 M⁻¹ s⁻¹
B5: Anticalin A3A5.7 (designed binder)
chain: QDSTSDLIPAPPLSKVPLQQNFQDNQFHGKWYVVGLAGNVILREDKDPYKMSATIYELKEDKSYNVTNVRFYLNKCYYTIATFVPGSRPGEFTLGTIKSGPGKTSGLVRVVSTNYSQHAMVFFKEVQQNREWFIITLYGRTKELTSKLKENFIRFSKSLGLPENHIVFPVPIDQCIDG
notes: Soluble form as in SPR; also called variant A3A5.7; not shown: C-terminal Strep-tag II

Kd [6]: 0.74 nM | koff [6]: 0.00016 s⁻¹ | kon [6]: 220000 M⁻¹ s⁻¹
B6: Anticalin A3A5.9 (designed binder)
chain: B5 chain with F71Y, R88Q, K103D, S116N
notes: A3A5.8 with K for E at position 147; also called variant A3A5.9; not shown: C-terminal Strep-tag II

The next lines start with the binder.

B2: Anticalin candidate A2 (designed binder)
chain: QDSTSDLIPAPPLSKVPLQQNFQDNQFHGKWYVVGRAGNKPLREDKDPLKMWATIYELKEDKSYNVTIVWFDFKKCWYRISTFVPGSQPGEFTLGRIKSAPGVTSGLVRVVSTNYNQHAMVFFKYVFQNREWFHITLYGRTKELTSELKENFIRFSKSLGLPENHIVFPVPIDQCIDG
notes: as for B1
binding result (ovalbumin): no binding | binding result [1]: binds

B3: Anticalin A3A5 (designed binder)
chain: B5 chain with N74K, R88Q, S116N, K147E
notes: Differs from A3 by Val for Met at position 40; monomeric, 21 kDa; also called variant A3A5; not shown: C-terminal Strep-tag II
Kd [2]: 2.5 nM | koff [2]: 0.00017 s⁻¹ | kon [2]: 71000 M⁻¹ s⁻¹ | Kd [3]: 2.1 nM | fold improvement of KD against A3 [4]: 2 fold

B4: Anticalin A3A5.8 (designed binder)
chain: B5 chain with F71Y, R88Q, K103D, S116N, K147E
notes: A3A5 with Y at 71, N at 74 and D at 103; also called variant A3A5.8; not shown: C-terminal Strep-tag II
fold improvement of KD against A3A5 [5]: ~2 fold | Kd [6]: 1.4 nM | koff [6]: 0.00015 s⁻¹ | kon [6]: 110000 M⁻¹ s⁻¹

B7: Anticalin A3 (designed binder)
chain: B5 chain with V40M, N74K, R88Q, S116N, K147E
notes: Lcn2-derived lipocalin variant, monomeric, made by periplasmic secretion in E. coli from pNGAL98 with a C-terminal Strep-tag II; also called variant A3; not shown: C-terminal Strep-tag II
binding result (ovalbumin): no binding | Kd [2]: 4.8 nM | koff [2]: 0.00058 s⁻¹ | kon [2]: 120000 M⁻¹ s⁻¹ | Kd [3]: 5.8 nM | Kd [7]: 6 nM

B8: Anticalin A3A5.1 (designed binder)
chain: B5 chain with K59N, F71Y, N74K, R88Q, F92Y, K103D, S116N
notes: Soluble form as in SPR; also called variant A3A5.1; not shown: C-terminal Strep-tag II
Kd [2]: 0.66 nM | koff [2]: 0.00014 s⁻¹ | kon [2]: 210000 M⁻¹ s⁻¹
